The values below come from patent publication US20040018972A1 (TRILLIUM THERAPEUTICS, published 2004).

In test [1] the target is T1, CD80 (B7-1) on mouse dendritic cells (mouse, UniProt Q00609 38-306).
T1 construct: whole, on cells
T1 sequence (looked up): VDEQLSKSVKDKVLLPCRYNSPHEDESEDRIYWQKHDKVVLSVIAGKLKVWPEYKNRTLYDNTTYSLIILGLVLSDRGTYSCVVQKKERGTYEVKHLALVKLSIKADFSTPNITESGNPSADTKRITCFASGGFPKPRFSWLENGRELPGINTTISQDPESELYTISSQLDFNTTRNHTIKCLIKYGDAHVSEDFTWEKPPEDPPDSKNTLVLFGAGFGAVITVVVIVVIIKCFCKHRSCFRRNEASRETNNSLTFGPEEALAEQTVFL
Kind of test: co-capping: DC pre-incubated with SH1.2.47 and anti-rat Ig at 37 C, then FACS staining of the other surface molecules. How it is done:
(§1) FIG. 3 is FACS analysis of the effect of pretreatment of DC with anti-MD-1 antibody on cell surface expression of molecules on dendritic cells. Cells in the columns shown were preincubated (60 minutes at 4° C.) in medium, rat anti-DC26, or anti-MD-1 (SH1.2.47), prior to washing and incubation at 37° C. with anti-rat Ig. Thereafter cells were stained with different mAbs as in FIG. 2.

The target of test [2] is T2, OX-2 (CD200) on mouse dendritic cells (mouse, UniProt O54901 31-278).
T2 construct: whole, on cells
T2 sequence (looked up): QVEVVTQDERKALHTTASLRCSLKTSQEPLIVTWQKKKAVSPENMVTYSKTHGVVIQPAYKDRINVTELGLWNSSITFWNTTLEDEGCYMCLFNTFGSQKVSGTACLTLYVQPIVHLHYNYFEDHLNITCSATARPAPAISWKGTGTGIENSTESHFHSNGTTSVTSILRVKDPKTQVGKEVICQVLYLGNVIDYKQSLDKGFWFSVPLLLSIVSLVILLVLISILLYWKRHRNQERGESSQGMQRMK
The description is as above. How it is done: as §1

The target of test [3] is T3, DEC205 on mouse dendritic cells (mouse, UniProt Q60767 28-1723).
T3 construct: whole, on cells
Described as above. How it is done: as §1

For test [4], the target named is T4, CD86 (B7-2) on mouse dendritic cells (mouse, UniProt P42082 24-309).
T4 construct: whole, on cells
T4 sequence (looked up): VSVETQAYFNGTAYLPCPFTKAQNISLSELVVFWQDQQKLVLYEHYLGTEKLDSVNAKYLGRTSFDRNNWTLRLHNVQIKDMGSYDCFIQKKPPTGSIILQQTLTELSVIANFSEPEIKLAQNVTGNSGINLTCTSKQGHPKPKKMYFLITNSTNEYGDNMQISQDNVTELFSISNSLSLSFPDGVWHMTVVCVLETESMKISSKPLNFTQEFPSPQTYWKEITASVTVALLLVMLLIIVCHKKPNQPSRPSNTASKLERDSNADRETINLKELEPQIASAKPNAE
Described as above. How it is done: as §1

The target of test [5] is T5, CD14 on mouse dendritic cells (mouse, UniProt P10810 16-336).
T5 construct: whole, on cells
T5 sequence (looked up): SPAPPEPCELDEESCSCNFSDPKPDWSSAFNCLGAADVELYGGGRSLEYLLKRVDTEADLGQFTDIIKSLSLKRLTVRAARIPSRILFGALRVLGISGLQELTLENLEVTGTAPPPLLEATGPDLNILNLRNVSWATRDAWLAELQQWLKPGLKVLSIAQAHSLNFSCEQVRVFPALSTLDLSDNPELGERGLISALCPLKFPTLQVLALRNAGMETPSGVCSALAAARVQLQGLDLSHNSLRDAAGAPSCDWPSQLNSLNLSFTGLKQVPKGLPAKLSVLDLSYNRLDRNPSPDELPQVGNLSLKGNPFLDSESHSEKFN
Kind of test: co-capping on DC: anti-CD14 staining reduced after capping of MD-1 with SH1.2.47 (FACS). The procedure:
as §1

T3 sequence (Q60767 28-1723): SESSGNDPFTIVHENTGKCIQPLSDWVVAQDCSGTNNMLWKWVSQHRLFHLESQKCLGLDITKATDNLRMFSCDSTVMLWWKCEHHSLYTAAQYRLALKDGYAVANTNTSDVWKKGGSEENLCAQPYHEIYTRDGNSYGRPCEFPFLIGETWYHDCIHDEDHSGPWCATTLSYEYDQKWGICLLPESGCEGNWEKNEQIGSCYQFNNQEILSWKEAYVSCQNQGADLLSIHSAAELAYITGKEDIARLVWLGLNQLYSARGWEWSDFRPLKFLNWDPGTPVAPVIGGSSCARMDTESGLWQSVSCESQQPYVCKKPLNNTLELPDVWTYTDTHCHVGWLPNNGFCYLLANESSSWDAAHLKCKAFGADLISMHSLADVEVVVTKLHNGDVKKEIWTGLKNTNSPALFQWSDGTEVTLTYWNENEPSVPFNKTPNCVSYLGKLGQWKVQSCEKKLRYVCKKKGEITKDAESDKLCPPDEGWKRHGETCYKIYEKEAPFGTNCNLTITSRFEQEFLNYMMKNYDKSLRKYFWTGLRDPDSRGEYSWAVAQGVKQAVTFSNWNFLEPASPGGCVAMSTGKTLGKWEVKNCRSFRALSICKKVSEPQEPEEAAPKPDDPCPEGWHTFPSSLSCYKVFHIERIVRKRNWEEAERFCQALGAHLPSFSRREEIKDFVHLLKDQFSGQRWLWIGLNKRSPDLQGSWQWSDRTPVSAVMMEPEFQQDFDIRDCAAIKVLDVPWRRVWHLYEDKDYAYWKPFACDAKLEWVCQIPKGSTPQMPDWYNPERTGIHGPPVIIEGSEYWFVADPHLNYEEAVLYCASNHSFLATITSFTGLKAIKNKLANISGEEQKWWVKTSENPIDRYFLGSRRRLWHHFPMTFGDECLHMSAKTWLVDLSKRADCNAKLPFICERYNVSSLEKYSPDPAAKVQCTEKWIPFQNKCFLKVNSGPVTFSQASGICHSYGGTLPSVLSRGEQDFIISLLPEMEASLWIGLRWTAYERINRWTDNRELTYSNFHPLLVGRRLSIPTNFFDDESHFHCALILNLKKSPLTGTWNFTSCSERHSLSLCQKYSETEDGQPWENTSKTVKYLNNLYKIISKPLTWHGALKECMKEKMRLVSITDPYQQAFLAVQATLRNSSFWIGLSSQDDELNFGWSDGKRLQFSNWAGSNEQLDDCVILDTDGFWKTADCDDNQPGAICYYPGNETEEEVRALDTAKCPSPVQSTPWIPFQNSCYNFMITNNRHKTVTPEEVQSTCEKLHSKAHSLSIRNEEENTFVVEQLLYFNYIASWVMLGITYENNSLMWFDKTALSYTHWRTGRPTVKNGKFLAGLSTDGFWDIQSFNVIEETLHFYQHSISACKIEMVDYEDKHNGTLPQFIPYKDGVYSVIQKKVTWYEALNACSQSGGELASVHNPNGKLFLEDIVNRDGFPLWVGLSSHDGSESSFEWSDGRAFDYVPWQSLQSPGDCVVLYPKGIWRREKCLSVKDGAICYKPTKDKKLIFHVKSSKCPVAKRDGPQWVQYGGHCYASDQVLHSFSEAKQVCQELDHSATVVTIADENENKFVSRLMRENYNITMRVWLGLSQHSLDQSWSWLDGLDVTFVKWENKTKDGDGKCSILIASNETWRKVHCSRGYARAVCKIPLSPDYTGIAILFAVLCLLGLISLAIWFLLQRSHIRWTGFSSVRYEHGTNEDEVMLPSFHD

B1: murine MD-1 (other, UniProt O88188 20-162, looked up)
chain: DHGSENGWPKHTACNSGGLEVVYQSCDPLQDFGLSIDQCSKQIQSNLNIRFGIILRQDIRKLFLDITLMAKGSSILNYSYPLCEEDQPKFSFCGRRKGEQIYYAGPVNNPGLDVPQGEYQLLLELYNENRATVACANATVTSS
notes: whole, on cells; also called mouse MD-1
For the molecule B1, the binding result is reported as “no binding” in test [1]; “no binding” in test [2]; “no binding” in test [3]; “no binding” in test [4]; “binds” in test [5].
